Test results: US20080234198A1 (Eli Lilly, published 2008)

T1: human VPAC2 receptor (human, UniProt P41587 24-438)
T1 sequence (looked up): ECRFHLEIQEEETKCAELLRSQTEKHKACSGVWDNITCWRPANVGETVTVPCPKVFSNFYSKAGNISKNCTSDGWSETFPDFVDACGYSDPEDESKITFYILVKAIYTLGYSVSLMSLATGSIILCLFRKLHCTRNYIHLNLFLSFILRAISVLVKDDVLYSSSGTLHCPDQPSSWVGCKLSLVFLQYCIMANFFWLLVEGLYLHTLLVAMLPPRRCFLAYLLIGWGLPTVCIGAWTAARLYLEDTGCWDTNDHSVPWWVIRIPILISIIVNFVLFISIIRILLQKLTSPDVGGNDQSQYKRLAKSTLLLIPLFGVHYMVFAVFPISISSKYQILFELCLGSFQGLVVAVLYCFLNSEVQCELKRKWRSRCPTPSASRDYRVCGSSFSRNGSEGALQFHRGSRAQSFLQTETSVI

T2: rat VPAC1 receptor (rat, UniProt P30083 31-459)
T2 sequence (looked up): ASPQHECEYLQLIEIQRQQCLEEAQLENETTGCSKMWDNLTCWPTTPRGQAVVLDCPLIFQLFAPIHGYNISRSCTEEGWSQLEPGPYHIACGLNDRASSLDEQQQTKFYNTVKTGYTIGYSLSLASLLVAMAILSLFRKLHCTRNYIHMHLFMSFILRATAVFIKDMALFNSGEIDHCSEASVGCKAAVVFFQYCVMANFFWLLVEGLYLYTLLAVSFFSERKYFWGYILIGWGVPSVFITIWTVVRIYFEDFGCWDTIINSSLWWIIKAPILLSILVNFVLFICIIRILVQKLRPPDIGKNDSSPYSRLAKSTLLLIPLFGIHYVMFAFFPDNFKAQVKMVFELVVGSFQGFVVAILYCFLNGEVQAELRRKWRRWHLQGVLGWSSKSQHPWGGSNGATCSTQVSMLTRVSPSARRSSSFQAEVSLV

T3: rat VPAC2 receptor (rat, UniProt P35000 23-437)
T3 sequence (looked up): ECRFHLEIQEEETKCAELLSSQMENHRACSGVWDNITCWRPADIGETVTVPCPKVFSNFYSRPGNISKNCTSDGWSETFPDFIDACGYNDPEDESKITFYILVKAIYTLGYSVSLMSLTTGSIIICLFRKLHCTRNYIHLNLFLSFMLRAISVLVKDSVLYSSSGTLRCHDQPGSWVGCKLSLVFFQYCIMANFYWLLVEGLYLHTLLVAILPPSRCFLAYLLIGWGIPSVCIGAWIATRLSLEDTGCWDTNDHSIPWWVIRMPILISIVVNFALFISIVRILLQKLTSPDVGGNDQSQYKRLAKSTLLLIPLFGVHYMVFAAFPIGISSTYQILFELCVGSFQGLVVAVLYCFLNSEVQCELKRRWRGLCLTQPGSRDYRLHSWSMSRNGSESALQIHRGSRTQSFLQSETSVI

T4: human VPAC2 receptor (human), P41587
T4 chain: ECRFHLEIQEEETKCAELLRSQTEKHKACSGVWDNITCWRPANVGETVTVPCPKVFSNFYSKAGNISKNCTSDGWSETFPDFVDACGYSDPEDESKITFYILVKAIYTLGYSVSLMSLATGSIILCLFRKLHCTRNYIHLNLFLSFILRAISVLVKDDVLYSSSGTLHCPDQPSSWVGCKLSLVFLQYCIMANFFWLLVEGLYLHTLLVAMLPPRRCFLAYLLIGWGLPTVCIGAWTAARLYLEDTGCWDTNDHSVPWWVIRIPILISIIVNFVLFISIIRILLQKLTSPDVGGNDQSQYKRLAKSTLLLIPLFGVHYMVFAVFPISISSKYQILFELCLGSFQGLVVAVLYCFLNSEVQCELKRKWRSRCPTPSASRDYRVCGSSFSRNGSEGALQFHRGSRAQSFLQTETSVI

B1: P580 (peptide)
peptide: HSDAVFTEQYTXLRXQLAXXXYLQXIXXCGGPSSGAPPPC
modifications: C6-HSDAVFTEQY(OMe)TOrnLRAibQLAAbuAibOrnYLQAibIOrnOrnC(PEG20K)GGPSSGAPPPC(PEG20K)-NH2
B2: P417 (peptide)
peptide: HSDAVFTEQYTRXRXQLAAXXYLQSIKXXGGPSSGAPPPC
modifications: C6-HSDAVFTEQY(OMe)TRAibRAibQLAAAibOrnY(OMe)LQSIKAibOrnGGPSSGAPPPC(PEG40K)-NH2
B3: P574 (peptide)
peptide: HSDAVFTEQYTXLRXQLAXXXYLQXIXXGGPSSGAPPPCC
modifications: C6-HSDAVFTEQY(OMe)TOrnLRAibQLAAbuAibOrnY(OMe)LQAibIOrnOrnGGPSSGAPPPC(PEG20K)C(PEG20K)-NH2
B4: P602 (peptide)
peptide: HSDAVFTEQYTXLRXQLAXXXYXQSIXXGGPSSGAPPPCC
modifications: C6-HSDAVFTEQY(OMe)TOrnLRAibQLAAbuAibOrnYAibQSIOrnOrnGGPSSGAPPPC(PEG30K)C(PEG30K)-NH2
B5: P582 (peptide)
peptide: HSDAVFTEQYTXLRXQLAXXXYLQSIXXGGPSSGAPPPCC
modifications: C6-HSDAVFTEQY(OMe)TOrnLRAibQLAAbuAibOrnY(OMe)LQSIOrnOrnGGPSSGAPPPC(PEG20K)C(PEG20K)-NH2
B6: P590 (peptide)
peptide: HSDAVFTEQYTXLRXQLXAXXYLQSIXXGGPSSGAPPPCC
modifications: C6-HSDAVFTEQY(OMe)TOrnLRAibQLAbuAAibOrnYLQSIOrnOrnGGPSSGAPPPC(PEG20K)C(PEG20K)-NH2
B7: P533 (peptide)
peptide: HSDAVFTEQYTXLRXQXAAXXYLQSIXXGGPSSGAPPPS
modifications: here or on the partner: C6-HSDAVFTEQY(OMe)TOrnLRAibQK(WPEG40K)AAAibOrnYLQSIOrnOrnGGPSSGAPPPS-NH2
B8: P485 (peptide)
peptide: HSDAVFTEQYTXLRXQVAAXXYLQSIXXGGPSSGAPPPS
modifications: C6-HSDAVFTEQY(OMe)TOrnLRK(CO(CH2)2SPEG40K)QVAAAibOrnYLQSIOrnOrnGGPSSGAPPPS-NH2
B9: P460 (peptide)
peptide: HSDAVFTEQYTXLRXQVAAXCYLQSIXXGGPSSGAPPPS
modifications: C6-HSDAVFTEQY(OMe)TOrnLRAibQVAAAibC(PEG40K)YLQSIOrnOrnGGPSSGAPPPS-NH2

Tests used:
human VPAC2 receptor [1] = molecular target: T1, human VPAC2 receptor; test: cell-based or functional assay
rat VPAC1 receptor = molecular target: T2, rat VPAC1 receptor; test: cell-based or functional assay
rat VPAC2 receptor = molecular target: T3, rat VPAC2 receptor; test: cell-based or functional assay
human VPAC2 receptor [2] = molecular target: T1, human VPAC2 receptor; test: filter binding, VPAC2 cell membranes, displacement of 125I-VIP
Procedure: Binding assays: Membrane prepared from a stable VPAC2 cell line (see Example 3) or from cells transiently transfected with human VPAC1 or PAC1 are used.
The assay plate is filled with 25 μL assay buffer, 25 μL membranes (2.5 μg) suspended in assay buffer, 25 μL agonist in assay buffer, and 25 μL tracer (about 40000 cpm) in assay buffer. The filled plate is incubated for 1 hour with shaking.
The transfer from assay plate to filter plate is conducted. The blocking buffer is aspirated by vacuum filtration and washed two times with flush buffer. 90 μL is transferred from the assay plate to the filter plate. The 90 μL transferred from assay plate is aspirated and washed three times with 200 μL flush buffer. The plastic support is removed. It is dried for 1 hour at 60° C. 30 μL Microscint is added. The count is performed.

[3] = molecular target: T4, human VPAC2 receptor (human), P41587; test: as above; conditions: remark: other sources report otherwise

Row | Binder | Human VPAC2 Receptor: Alphascreen (EC50; nM) (human VPAC2 receptor [1]) [nM] | Rat VPAC1 Receptor: DiscoveRx: (EC50; nM) (rat VPAC1 receptor) [nM] | Rat VPAC2 Receptor: DiscoveRx: (EC50; nM) (rat VPAC2 receptor) [nM] | IC50 (human VPAC2 receptor [2]) [nM] | Human VPAC2 Receptor: DiscoveRx (EC50; nM) (human VPAC2 receptor [1]) [nM] | IC50 [3] [nM]
1 | B1 | 10.9 | 1.1 | 11.9 | 20.7 |  | 
2 | B2 | 14.7 | 232 | 8.7 | 24.1 |  | 
3 | B3 | 21.2 | 163 | 33.8 | 32.3 | 36.1 | 
4 | B4 | 42.1 | 209 | 36.9 | 28 | 7.2 | 
5 | B5 | 20.3 | 137 | 31 | 48.3 |  | 
6 | B6 | 4.1 | 245 | 6.9 | 7.4 |  | 
7 | B7 |  |  |  |  |  | 959
8 | B8 | 44.5 | 735 | 42.5 | 17.3 |  | 
9 | B9 | 430 | > 1000 | 1160 | 914 |  | 
